Assay results as given in patent US6545137.

Biological target: low-density lipoprotein (LDL), 125I-labelled
Assay: cell-based or functional assay

LDL uptake (40 ug/ml 125I-LDL, 4 h, 37 C, FH fibroblasts infected with LRP5 adenovirus) [% increase]	LDL uptake (40 ug/ml 125I-LDL, 4 h, 37 C, FH fibroblasts infected with LDL-receptor adenovirus) [fold]	Substance
60		human LRP5 (LDL-receptor related protein-5), isoform 1 (from UniProt O75197 32-1615)
	20	human LDL-receptor (from UniProt P01130 22-860)
